T1: FcγRIIb (human, UniProt P31994 43-217)
T1 construct: extracellular domain; also called 2b; not shown: His tag at the C terminus
T1 sequence (looked up): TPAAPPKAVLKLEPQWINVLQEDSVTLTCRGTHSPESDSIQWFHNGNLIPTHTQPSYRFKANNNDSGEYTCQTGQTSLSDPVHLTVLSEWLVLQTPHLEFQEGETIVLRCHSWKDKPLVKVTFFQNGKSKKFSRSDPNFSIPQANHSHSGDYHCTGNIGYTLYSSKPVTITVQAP

T2: FcγRIIa H (human, UniProt P12318 34-217)
T2 construct: extracellular domain; also called FcγRIIa type H; 2aH; not shown: His tag at the C terminus
T2 sequence (looked up): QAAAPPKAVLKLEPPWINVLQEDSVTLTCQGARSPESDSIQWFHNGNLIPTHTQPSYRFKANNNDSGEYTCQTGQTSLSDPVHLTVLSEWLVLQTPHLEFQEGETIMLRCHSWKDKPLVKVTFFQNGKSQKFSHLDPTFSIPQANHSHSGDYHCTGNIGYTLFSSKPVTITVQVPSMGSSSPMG

B1: GpH7-A5/GpH7-B3 variant G236_04F/GpL16-k0 (antibody, human IgG1, kappa)
heavy 1: not shown
heavy 2: not shown
light: DIVMTQSPLSLPVTPGEPASISCQASESLVHSNRNTYLHWYLQKPGQSPQLLIYKVSNRFSGVPDRFSGSGSGTDFTLKISRVEAEDVGVYYCSQNTHVPPTFGQGTKVEIERTVAAPSVFIFPPSDEQLKSGTASVVCLLNNFYPREAKVQWKVDNALQSGNSQESVTEQDSKDSTYSLSSTLTLSKADYEKHKVYACEVTHQGLSSPVTKSFNRGEC
notes: Heterodimerized IgG1; mutation in the GpH7-B3 chain only; also called He Ab
B2: GpH7-A5/GpH7-B3 variant L235_19Q/GpL16-k0 (antibody, human IgG1, kappa)
heavy 1: not shown
heavy 2: not shown
light: B1 light
notes: as for B1
B3: GpH7-A5/GpH7-B3 variant L235_03V/GpL16-k0 (antibody, human IgG1, kappa)
heavy 1: not shown
heavy 2: not shown
light: B1 light
notes: as for B1
B4: GpH7-A5/GpH7-B3 variant L235_18N/GpL16-k0 (antibody, human IgG1, kappa)
heavy 1: not shown
heavy 2: not shown
light: B1 light
notes: as for B1
B5: GpH7-A5/GpH7-B3 variant L234_04F/GpL16-k0 (antibody, human IgG1, kappa)
heavy 1: not shown
heavy 2: not shown
light: B1 light
notes: as for B1
B6: GpH7-A5/GpH7-B3 variant G236_08L/GpL16-k0 (antibody, human IgG1, kappa)
heavy 1: not shown
heavy 2: not shown
light: B1 light
notes: as for B1
B7: GpH7-A5/GpH7-B3 variant L234_02A/GpL16-k0 (antibody, human IgG1, kappa)
heavy 1: not shown
heavy 2: not shown
light: B1 light
notes: as for B1
B8: GpH7-A5/GpH7-B3 variant G236_06M/GpL16-k0 (antibody, human IgG1, kappa)
heavy 1: not shown
heavy 2: not shown
light: B1 light
notes: as for B1
B9: GpH7-A5/GpH7-B3 variant L234_12R/GpL16-k0 (antibody, human IgG1, kappa)
heavy 1: not shown
heavy 2: not shown
light: B1 light
notes: as for B1
B10: GpH7-A5/GpH7-B3 variant G236_13S/GpL16-k0 (antibody, human IgG1, kappa)
heavy 1: not shown
heavy 2: not shown
light: B1 light
notes: as for B1
B11: GpH7-A5/GpH7-B3 variant L234_13S/GpL16-k0 (antibody, human IgG1, kappa)
heavy 1: not shown
heavy 2: not shown
light: B1 light
notes: as for B1
B12: GpH7-A5/GpH7-B3 variant L235_11K/GpL16-k0 (antibody, human IgG1, kappa)
heavy 1: not shown
heavy 2: not shown
light: B1 light
notes: as for B1
B13: GpH7-A5/GpH7-B3 variant L234_16H/GpL16-k0 (antibody, human IgG1, kappa)
heavy 1: not shown
heavy 2: not shown
light: B1 light
notes: as for B1
B14: GpH7-A5/GpH7-B3 variant L234_15Y/GpL16-k0 (antibody, human IgG1, kappa)
heavy 1: not shown
heavy 2: not shown
light: B1 light
notes: as for B1
B15: GpH7-A5/GpH7-B3 variant L234_14T/GpL16-k0 (antibody, human IgG1, kappa)
heavy 1: not shown
heavy 2: not shown
light: B1 light
notes: as for B1
B16: GpH7-A5/GpH7-B3 variant L235_14T/GpL16-k0 (antibody, human IgG1, kappa)
heavy 1: not shown
heavy 2: not shown
light: B1 light
notes: as for B1
B17: GpH7-A5/GpH7-B3 variant L234_19Q/GpL16-k0 (antibody, human IgG1, kappa)
heavy 1: not shown
heavy 2: not shown
light: B1 light
notes: as for B1
B18: GpH7-A5/GpH7-B3 variant L234_05P/GpL16-k0 (antibody, human IgG1, kappa)
heavy 1: not shown
heavy 2: not shown
light: B1 light
notes: as for B1
B19: GpH7-A5/GpH7-B3 variant L235_13S/GpL16-k0 (antibody, human IgG1, kappa)
heavy 1: not shown
heavy 2: not shown
light: B1 light
notes: as for B1
B20: GpH7-A5/GpH7-B3 variant L235_01G/GpL16-k0 (antibody, human IgG1, kappa)
heavy 1: not shown
heavy 2: not shown
light: B1 light
notes: as for B1
B21: GpH7-A5/GpH7-B3 variant G236_15Y/GpL16-k0 (antibody, human IgG1, kappa)
heavy 1: not shown
heavy 2: not shown
light: B1 light
notes: as for B1
B22: GpH7-A5/GpH7-B3 variant L234_11K/GpL16-k0 (antibody, human IgG1, kappa)
heavy 1: not shown
heavy 2: not shown
light: B1 light
notes: as for B1
B23: GpH7-A5/GpH7-B3 variant G236_05P/GpL16-k0 (antibody, human IgG1, kappa)
heavy 1: not shown
heavy 2: not shown
light: B1 light
notes: as for B1
B24: GpH7-A5/GpH7-B3 variant G236_12R/GpL16-k0 (antibody, human IgG1, kappa)
heavy 1: not shown
heavy 2: not shown
light: B1 light
notes: as for B1
B25: GpH7-A5/GpH7-B3 variant G236_07I/GpL16-k0 (antibody, human IgG1, kappa)
heavy 1: not shown
heavy 2: not shown
light: B1 light
notes: as for B1
B26: GpH7-A5/GpH7-B3 variant L234_01G/GpL16-k0 (antibody, human IgG1, kappa)
heavy 1: not shown
heavy 2: not shown
light: B1 light
notes: as for B1
B27: GpH7-A5/GpH7-B3 variant G236_14T/GpL16-k0 (antibody, human IgG1, kappa)
heavy 1: not shown
heavy 2: not shown
light: B1 light
notes: as for B1

The first assay deals with T1, FcγRIIb. The assay is described as follows: SPR (Biacore), antibody captured, FcγR as analyte; binding relative to GpH7-A5/GpH7-B3/GpL16-k0 = 100. (In general: Surface plasmon resonance follows binding to a sensor surface in real time, without labels.)
With B1, the He/Con_2b is 39.3 % of control.

With B2, the He/Con_2b was 42.6 % of control.

As for B3, the He/Con_2b is 66.4 % of control.

With B4, the He/Con_2b was 54.9 % of control.

In the case of B5, the He/Con_2b was 99.8 % of control.

With B6, the He/Con_2b is 26.8 % of control.

In the case of B7, the He/Con_2b was 64.9 % of control.

Turning to B8, the He/Con_2b is 45.5 % of control.

Regarding B9, the He/Con_2b is 18.9 % of control.

For the molecule B10, the He/Con_2b was 96.7 % of control.

Regarding B11, the He/Con_2b is 59.3 % of control.

B12: the He/Con_2b is 6.3 % of control.

For B13, the He/Con_2b was 59.4 % of control.

As to B14, the He/Con_2b was 96.3 % of control.

Regarding B15, the He/Con_2b is 62.5 % of control.

For the molecule B16, the He/Con_2b is 46.8 % of control.

As for B17, the He/Con_2b was 60.3 % of control.

For B18, the He/Con_2b was 72.9 % of control.

For B19, the He/Con_2b is 48.2 % of control.

Regarding B20, the He/Con_2b was 35.4 % of control.

For B21, the He/Con_2b is 39.5 % of control.

As for B22, the He/Con_2b is 16.2 % of control.

For the molecule B23, the He/Con_2b is 19 % of control.

For the molecule B24, the He/Con_2b is 6.8 % of control.

Regarding B25, the He/Con_2b was 31 % of control.

Regarding B26, the He/Con_2b was 50.7 % of control.

On to B27, for which the He/Con_2b is 57.8 % of control.

The target in a further assay is T2, FcγRIIa H. Described as above.
B1: the He/Con_2aH was 118 % of control.

Turning to B2, the He/Con_2aH was 62 % of control.

For B3, the He/Con_2aH is 85.3 % of control.

As to B4, the He/Con_2aH is 66.1 % of control.

As to B5, the He/Con_2aH was 120 % of control.

Turning to B6, the He/Con_2aH is 75.8 % of control.

For B7, the He/Con_2aH was 81 % of control.

Turning to B8, the He/Con_2aH was 85.7 % of control.

B9: the He/Con_2aH was 47.7 % of control.

Consider B10, for which the He/Con_2aH is 135 % of control.

As for B11, the He/Con_2aH is 80.4 % of control.

Consider B12, for which the He/Con_2aH was 22.7 % of control.

In the case of B13, the He/Con_2aH is 87.3 % of control.

B14: the He/Con_2aH was 120 % of control.

For the molecule B15, the He/Con_2aH was 78.1 % of control.

Regarding B16, the He/Con_2aH was 71.5 % of control.

Regarding B17, the He/Con_2aH is 79.2 % of control.

With B18, the He/Con_2aH is 93.5 % of control.

For the molecule B19, the He/Con_2aH is 66.1 % of control.

As to B20, the He/Con_2aH is 54.1 % of control.

With B21, the He/Con_2aH is 136 % of control.

With B22, the He/Con_2aH is 40.8 % of control.

Take B23: the He/Con_2aH is 63.5 % of control.

B24: the He/Con_2aH was 34.2 % of control.

For the molecule B25, the He/Con_2aH was 115 % of control.

As to B26, the He/Con_2aH was 75.6 % of control.

Turning to B27, the He/Con_2aH is 103 % of control.

Another assay deals with T2, FcγRIIa H. The assay is described as follows: SPR (Biacore); He/Con_2aH divided by He/Con_2b (FcγRIIa H over FcγRIIb).
In the case of B1, the “He_2aH/2b (IIaH/IIb)” value came to 3 ratio.

Take B2: the “He_2aH/2b (IIaH/IIb)” value came out at 1.45 ratio.

Consider B3, for which the “He_2aH/2b (IIaH/IIb)” value stood at 1.28 ratio.

For B4, the “He_2aH/2b (IIaH/IIb)” value was 1.2 ratio.

On to B5, for which the “He_2aH/2b (IIaH/IIb)” value worked out at 1.2 ratio.

In the case of B6, the “He_2aH/2b (IIaH/IIb)” value is 2.83 ratio.

Turning to B7, the “He_2aH/2b (IIaH/IIb)” value was determined as 1.25 ratio.

In the case of B8, the “He_2aH/2b (IIaH/IIb)” value worked out at 1.88 ratio.

For the molecule B9, the “He_2aH/2b (IIaH/IIb)” value was found to be 2.53 ratio.

Take B10: the “He_2aH/2b (IIaH/IIb)” value came out at 1.39 ratio.

On to B11, for which the “He_2aH/2b (IIaH/IIb)” value turned out to be 1.36 ratio.

Regarding B12, the “He_2aH/2b (IIaH/IIb)” value was determined as 3.61 ratio.

Take B13: the “He_2aH/2b (IIaH/IIb)” value stood at 1.47 ratio.

As for B14, the “He_2aH/2b (IIaH/IIb)” value came to 1.25 ratio.

For the molecule B15, the “He_2aH/2b (IIaH/IIb)” value was 1.25 ratio.

Regarding B16, the “He_2aH/2b (IIaH/IIb)” value amounted to 1.53 ratio.

For B17, the “He_2aH/2b (IIaH/IIb)” value came to 1.31 ratio.

For the molecule B18, the “He_2aH/2b (IIaH/IIb)” value was determined as 1.28 ratio.

As to B19, the “He_2aH/2b (IIaH/IIb)” value stood at 1.37 ratio.

B20: the “He_2aH/2b (IIaH/IIb)” value stood at 1.53 ratio.

Regarding B21, the “He_2aH/2b (IIaH/IIb)” value came out at 3.45 ratio.

Consider B22, for which the “He_2aH/2b (IIaH/IIb)” value turned out to be 2.52 ratio.

With B23, the “He_2aH/2b (IIaH/IIb)” value amounted to 3.34 ratio.

For B24, the “He_2aH/2b (IIaH/IIb)” value is 5.04 ratio.

For the molecule B25, the “He_2aH/2b (IIaH/IIb)” value worked out at 3.72 ratio.

In the case of B26, the “He_2aH/2b (IIaH/IIb)” value turned out to be 1.49 ratio.

As for B27, the “He_2aH/2b (IIaH/IIb)” value was 1.79 ratio.
